Assay [1] has as its target SARS-CoV-2 Alpha variant B.1.1.7, S1 subunit (SARS-CoV-2). Kind of assay: SPR. The note with it: both partners purified.
Assay [2] addresses SARS-CoV-2 Omicron B.1.1.529 RBD only (SARS-CoV-2, UniProt P0DTC2). The experiment in a line: SPR. The note with it: both partners purified.

B1: LiVE-Longer YTE chimera (ACE-2 LVE/STR-YTE fusion protein) (Fc fusion)
chain: QSTIEEQAKLFLDKFNVEAEDLFYQSSLASWNYNTNITEENVQNMNNAGDKWSAFLKEQSTLAQMYPLQEIQELTVKLQLQALQQNGSSVLSEDKSKRLNTILNTMSTIYSTGKVCNPDNPQECLLLEPGLNEIMANSLDYNERLWAWESWRSEVGKQLRPLYEEYVVLKNEMARANHYEDYGDYWRGDYEVNGVDGYDYSRGQLIEDVEHTFEEIKPLYEHLHAYVRAKLMNAYPSYISPIGCLPAHLLGDMWGRFWTNLYSLTVPFGQKPNIDVTDAMVDQAWDAQRIFKEAEKFFVSVGLPNMTQGFWENSMLTDPGNVQKAVCHPTAWDLGKGDFRILMCTKVTMDDFLTAHHEMGHIQYDMAYAAQPFLLRNGANEGFHEAVGEIMSLSAATPKHLKSIGLLSPDFQEDNETEINFLLKQALTIVGTLPFTYMLEKWRWMVFKGEIPKDQWMKKWWEMKREIVGVVEPVPHDETYCDPASLFHVSNDYSFIRYYTRTLYQFQFQEALCQAAKHEGPLHKCDISNSTEAGQKLFNMLRLGKSEPWTLALENVVGAKNMNVRPLLNYFEPLFTWLKDQNKNSFVGWSTDWSPYADQSIKVRISLKSALGDKAYEWNDNEMYLFRSSVAYAMRQYFLKVKNQMILFGEEDVRVANLKPRISFNFFVTAPKNVSDIIPRTEVEKAIRMSRSRINDAFRLNDNSLEFLGIQPTLGPPNQPPVS
For the molecule B1, the results for the dissociation constant (Kd) in assay [1] and in assay [2] were 0.093 nM and 0.402 nM, respectively.

One may read the Kd as the free concentration of one partner at which half of the binding sites on the other are occupied at equilibrium, for simple one-to-one binding. Higher therefore signals weaker binding.

(Values after article PMC9889962 (Antibody Therapeutics, 2023).)
